Data from PMC11263391 (Nature Communications, 2024).
Each block holds one binder with its values, some of them ahead of it.

What was measured:
Settings in all cases: both partners purified
[1] = target: T1, ASB7-Elongin B-Elongin C ternary complex (wild-type ASB7, residues 11-318) (human, UniProt Q9H672 11-318; Q15370 1-104; Q15369 17-112); experiment: ITC; peptide in the syringe titrated into ASB7-Elongin B/C in the cell; MicroCal PEAQ-ITC, 16 °C, 20 mM Tris-HCl pH 7.5, 150 mM NaCl; 39–156 μM protein, 0.8–4 mM peptide; repeated three times, mean ± SD
T1 construct: human ASB7, residues 11-318; human Elongin B, residues 1-104; also called ASB7-Elongin B/C; WT; source: E. coli BL21 (DE3), co-expressed, purified (Ni-NTA, Superdex 200); not shown: SUMO, N-terminal, cleaved; copies: + +
T1 sequence (Q9H672 11-318, chain 1 of 3): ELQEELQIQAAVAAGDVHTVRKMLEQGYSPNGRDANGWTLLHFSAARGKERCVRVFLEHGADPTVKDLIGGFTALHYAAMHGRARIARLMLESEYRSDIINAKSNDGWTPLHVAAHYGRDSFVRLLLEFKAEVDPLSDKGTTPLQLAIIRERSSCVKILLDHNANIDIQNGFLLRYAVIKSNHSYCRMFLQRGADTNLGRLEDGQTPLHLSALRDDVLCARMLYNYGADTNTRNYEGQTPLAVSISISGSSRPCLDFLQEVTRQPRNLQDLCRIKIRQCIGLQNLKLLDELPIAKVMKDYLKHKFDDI
T1 sequence (Q15370 1-104, chain 2 of 3): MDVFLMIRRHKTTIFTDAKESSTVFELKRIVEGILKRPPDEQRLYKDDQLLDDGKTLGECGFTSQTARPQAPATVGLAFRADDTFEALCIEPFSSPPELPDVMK
T1 sequence (Q15369 17-112, chain 3 of 3): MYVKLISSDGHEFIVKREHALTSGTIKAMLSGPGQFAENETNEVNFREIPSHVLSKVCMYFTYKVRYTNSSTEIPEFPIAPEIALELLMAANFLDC

[2] = target: T2, ASB7-Elongin B-Elongin C ternary complex (human, UniProt Q9H672 11-318; Q15370 1-104; Q15369 17-112); experiment: ITC; peptide (0.8–4 mM) titrated into the ASB7 complex (39–156 µM); 16 °C; 20 mM Tris-HCl pH 7.5, 150 mM NaCl; MicroCal PEAQ-ITC
T2 construct: ASB7, human, residues 11-318; Elongin B, human, residues 1-104; ASB7 cloned into pET28-MKH8SUMO (Addgene plasmid #79526 is the vector); Elongin B and C in pCDFDuet-1; tag cleaved with TEV protease; also called ASB7-Elongin B/C; wild-type ASB7; source: E. coli BL21 (DE3), co-expressed, purified (Ni-NTA, Superdex 200); not shown: SUMO, N-terminal, cleaved; copies: + +
Target sequence in this assay (Q9H672 11-318, chain 1 of 3): as the sequence (Q9H672 11-318, chain 1 of 3) above
Target sequence in this assay (Q15370 1-104, chain 2 of 3): as the sequence (Q15370 1-104, chain 2 of 3) above
Target sequence in this assay (Q15369 17-112, chain 3 of 3): as the sequence (Q15369 17-112, chain 3 of 3) above

[3] = target: T2, ASB7-Elongin B-Elongin C ternary complex; experiment: pull-down; GST or GST-fusion degron peptides (~50 µg) on glutathione magnetic beads, ~30 µg purified ASB7-Elongin B/C added; 20 mM Tris-HCl pH 7.5, 400 mM NaCl, 2 mM β-mercaptoethanol; 4 °C; glutathione elution, Coomassie-stained SDS-PAGE

B3: GIGYF1 degron peptide (peptide)
peptide: EDDEGLKHLQQEAEKLVASLQDS
notes: stretch of GIGYF1, a reported ASB7 substrate; source: synthetic peptide (Shanghai Apeptide Co., Ltd.)
- Kd [1]: 1000 nM
- stoichiometry N [1]: 0.78

B4: LZTS1 degron peptide, 17 residues (ELESLMKEQDLLETKLR) (peptide)
peptide: ELESLMKEQDLLETKLR
notes: LZTS1 degron, positions E1 to R17 of the degron numbering; also called 17-residue degron; source: synthetic peptide (Shanghai Apeptide Co., Ltd.)
- Kd [1]: 5100 nM
- stoichiometry N [1]: 1.12

B7: GST-fused CEP152 degron peptide (peptide)
chain: GHCFQELEKAKQECQDLKGKLEKCCRHLQHLERKHK
notes: degron stretch of CEP152; pGEX vector; also called GST-tagged CEP152; not shown: GST, N-terminal, kept
- binding result [3]: binds

B8: GST-fused GIGYF1 degron peptide (peptide)
chain: SSAGPPGDLEDDEGLKHLQQEAEKLVASLQDSSLEEEQFT
notes: degron stretch of GIGYF1; pGEX vector; also called GST-tagged GIGYF1; not shown: GST, N-terminal, kept
- binding result [3]: binds

B9: CCDC17 degron peptide (peptide)
peptide: LEQEIRELQAEAGRTRGALEVLG
notes: stretch of CCDC17, a reported ASB7 substrate; also called CCDC17 peptide; source: synthetic peptide (Shanghai Apeptide Co., Ltd.)
- Kd [1]: 1100 nM
- stoichiometry N [1]: 0.76

B15: GST-fused CCDC17 degron peptide (peptide)
chain: GMSRLFGLEQEIRELQAEAGRTRGALEVLGARIQELQAE
notes: degron stretch of CCDC17; pGEX vector; also called GST-tagged CCDC17; not shown: GST, N-terminal, kept
- binding result [3]: binds

Now from value to binder:

- Kd [1]: 700 nM
- stoichiometry N [1]: 0.71
B1: LZTS1 degron peptide Y19R (peptide)
peptide: RQELESLMKEQDLLETKLRSRER
notes: numbers count on: the degron, E1 = third letter of the 23-residue peptide; source: synthetic peptide (Shanghai Apeptide Co., Ltd.)

- Kd [2]: 1300 nM
B2: DDA3-degron 23-residue peptide (peptide)
peptide: SPEKLEEILDEANRLAAQLEQCAL
notes: DDA3; the region covering residues 70-93 was named as the potential degron and a 23-residue peptide was synthesized; residues 70-93 are 24 residues, the peptide is said to have 23; also called DDA3 residues 70–93; source: synthetic peptide (Shanghai Apeptide Co., Ltd.)

- stoichiometry N [1]: 1.27
B5: CEP152 degron peptide (peptide)
peptide: ELEKAKQECQDLKGKLEKCCRH
notes: stretch of CEP152, a reported ASB7 substrate; source: synthetic peptide (Shanghai Apeptide Co., Ltd.)

- binding result [3]: binds
B6: GST-fused CLIP2 degron peptide (peptide)
chain: SGPGAQQKEIGELKAVMEGIKMEHQLELGNLQAKHDLET
notes: degron stretch of CLIP2; pGEX vector; also called GST-tagged CLIP2; not shown: GST, N-terminal, kept

- Kd [1]: 700 nM
- stoichiometry N [1]: 0.68
B10: LZTS1 degron peptide, 21 residues (ELESLMKEQDLLETKLRSYER) (peptide)
peptide: ELESLMKEQDLLETKLRSYER
notes: LZTS1 degron shortened by two residues at the N-terminus; source: synthetic peptide (Shanghai Apeptide Co., Ltd.)

- stoichiometry N [1]: 1.32
B11: DDA3 degron peptide (peptide)
peptide: PEKLEEILDEANRLAAQLEQCAL
notes: stretch of DDA3; the text names the region as residues 70-93 (24 residues) and the peptide as 23 residues; also called DDA3 peptide; source: synthetic peptide (Shanghai Apeptide Co., Ltd.)

- Kd [1]: 900 nM
- stoichiometry N [1]: 0.91
B12: LZTS1 degron peptide, 21 residues (RQELESLMKEQDLLETKLRSY) (peptide)
peptide: RQELESLMKEQDLLETKLRSY
notes: LZTS1 degron shortened by two residues at the C-terminus; source: synthetic peptide (Shanghai Apeptide Co., Ltd.)

- binding result [3]: binds
B13: GST-fused LZTS1-degron (peptide)
chain: VLQLQQEKRQLRQELESLMKEQDLLETKLRSYEREKTSFG
notes: degron stretch of LZTS1; pGEX vector; also called GST-tagged LZTS1; not shown: GST, N-terminal, kept

- Kd [1]: 700 nM
- stoichiometry N [1]: 0.71
B14: CLIP2 degron peptide (peptide)
peptide: EIGELKAVMEGIKMEHQLELGN
notes: stretch of CLIP2, a reported ASB7 substrate; source: synthetic peptide (Shanghai Apeptide Co., Ltd.)
